Among the data in patent US8268575B2, “NAD biosynthesis systems” (Washington University, priority 2004, dated 2012) are Km values, retold here.

A word on the Km: it is the concentration of substrate that gives half-maximal velocity.

Substrate in this data set: NC(=O)c1cccnc1
Nature of the data set: purified protein, by the assay type. The following applies: other: substrate of Nampt, 37° C., pH 7.5.

B1: purified recombinant mouse Nampt (Mus musculus) (protein)
chain: MNAAAEAEFNILLATDSYKVTHYKQYPPNTSKVYSYFECREKKTENSKVRKVKYEETVFYGLQYILNKYLKGKVVTKEKIQEAKEVYREHFQDDVFNERGWNYILEKYDGHLPIEVKAVPEGSVIPRGNVLFTVENTDPECYWLTNWIETILVQSWYPITVATNSREQKKILAKYLLETSGNLDGLEYKLHDFGYRGVSSQETAGIGASAHLVNFKGTDTVAGIALIKKYYGTKDPVPGYSVPAAEHSTITAWGKDHEKDAFEHIVTQFSSVPVSVVSDSYDIYNACEKIWGEDLRHLIVSRSTEAPLIIRPDSGNPLDTVLKVLDILGKKFPVTENSKGYKLLPPYLRVIQGDGVDINTLQEIVEGMKQKKWSIENVSFGSGGALLQKLTRDLLNCSFKCSYVVTNGLGVNVFKDPVADPNKRSKKGRLSLHRTPAGNFVTLEEGKGDLEEYGHDLLHTVFKNGKVTKSYSFDEVRKNAQLNIEQDVAPH
Take B1: the Km came to 0.92 µM.
